Assay results: patent US20230106715A1 (BIOSION, published 2023)
Changes are numbered by the printed parent chain.

T1: cynomolgus monkey Siglec15-his protein (cynomolgus monkey)
T1 construct: In house made; also called Cynomolgus Siglec15-his; cynomolgus Siglec15
T1 chain: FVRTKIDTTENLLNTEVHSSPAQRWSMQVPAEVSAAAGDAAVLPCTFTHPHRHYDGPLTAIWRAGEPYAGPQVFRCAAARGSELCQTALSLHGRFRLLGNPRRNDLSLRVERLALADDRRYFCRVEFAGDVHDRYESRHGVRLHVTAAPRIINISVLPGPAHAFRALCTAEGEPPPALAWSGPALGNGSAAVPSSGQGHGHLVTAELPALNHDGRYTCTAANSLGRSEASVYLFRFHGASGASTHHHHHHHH

T2: recombinant human Siglec15-his protein (human, UniProt Q6ZMC9 20-263)
T2 construct: In house made; Biotin-labeled in the capture ELISA
T2 sequence: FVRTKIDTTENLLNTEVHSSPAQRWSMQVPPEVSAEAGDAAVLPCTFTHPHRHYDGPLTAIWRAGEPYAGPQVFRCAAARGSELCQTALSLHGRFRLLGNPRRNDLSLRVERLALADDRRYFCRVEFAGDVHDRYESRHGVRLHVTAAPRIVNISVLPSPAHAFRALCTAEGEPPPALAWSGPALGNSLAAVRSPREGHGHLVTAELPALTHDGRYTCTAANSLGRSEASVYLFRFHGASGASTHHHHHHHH

B1: anti-Siglec15 benchmark (ch5G12) (antibody, human IgG1, kappa, V domains shown)
VH: QVQLQQPGAELVKPGASVKMSCKASGYTFTSYWITWVIQRPGQGLEWIGDIYCGSDTMHYNEKFKNKATLTVDTSSSTAYMQLSSLTSEDSAVYYCARWWDYGSSYDYFDYWGQGTTLTVSS
VL: DIKMTQSPSSMYASLGERVTITCKASQDINSYLSWFQQKPGKSPKTLIYRANRLVDGVPSRFSGSGSGQDYSLTISSLEYEDMGIYYCLQYDEFPYTFGGGTKLEIKR
notes: ch5G12 (US 20190202912A1); also called BM; Siglec15-ch5G9
B2: A2A5C7E8 (antibody, V domains shown)
VH: EVQLVQSGAEVKKPGESLRISCKGSGYSFTTYWISWVRQMPGKGLEWMGLIDPSDSYTNYSPSFQGHVTISTDKSISTAYLQWSSLKASDTAMYYCARGGYYGSEEDYWGQGTLVTVSS
VL: EIVLTQSPGTLSLSPGERATLSCRASQSVSSSRLAWFQQKSGQAPRLLIFDASSRATGIPDRFSGSGSGTDFTLTISRLEPEDFAVYYCQQYGSSPRTFGQGTKVEFK
notes: Fully human antibody from transgenic mouse hybridoma; also called A2A5C7E8-1
B3: A2A5C7E8-2 (antibody, human IgG1, kappa, V domains shown)
VH: B2 VH with D55E
VL: EIVLTQSPGTLSLSPGERATLSCRASQSVSSSRLAWFQQKSGQAPRLLIFDASSRATGIPDRFSGSGSGTDFTLTISRLEPEDFAVYYCQQYGSSPRTFGQGTKVEFKR
notes: Variant of A2A5C7E8 modified in VH CDR2 (X1 = E)
B4: A2A5C7E8-3 (antibody, human IgG1, kappa, V domains shown)
VH: B2 VH with Q65K
VL: B3 VL
notes: Variant of A2A5C7E8 modified in VH CDR2 (X2 = K)
B5: A1E10G7H9 (antibody, V domains shown)
VH: QVQLQESGPGLVKPSGTLSLTCAVSGGSISSSNWWHWVRQPPGKGLEWIGEIYHSGNTNYKPSLKSRVTISVDKSKNQFSLKLSSVTAADTAVYYCARDEGNGWSNAFDIWGQGTMVTVSS
VL: ENVLTQSPGTLSLSPGERVTLSCRASQSVSSSYLAWYQQKPGQAPRFLIYGASGGATGIPDRFSGSGSGTDFTLTISRLEPEDFAVYYCQQYGSSPITFGQGTRLEIK
notes: Fully human antibody from transgenic mouse hybridoma

Biological target: T1, cynomolgus monkey Siglec15-his protein
Assay: indirect ELISA on coated cynomolgus Siglec15-his
Procedure: The anti-Siglec15 antibodies' cross-reactions to cynomolgus or mouse Siglec15 proteins were measured. Briefly, 96-well micro plates were coated with 100 μl of 2 μg/ml cynomolgus Siglec15-his protein (in house made with SEQ ID NO: 21), or 2 μg/ml mouse Siglec15-his protein (in house made with SEQ ID NO: 22) in carbonate/bicarbonate buffer (pH 9.6) for 2 hours at 37° C. ELISA plates were washed once with wash buffer (PBS+0.05% v/v Tween-20, PBST) and then blocked with 200 μl/well blocking buffer (5% w/v non-fatty milk in PBST) overnight at 4° C. Plates were washed 4 times and incubated with 100 μl serially diluted anti-Siglec15 antibodies of the disclosure or controls (starting at 66.7 nM, 5-fold serial dilution in PBST with 2.5% w/v non-fatty milk) for 40 minutes at 37° C. ELISA plates were washed 4 times again and incubated with Peroxidase AffiniPure Goat Anti-Human IgG, F(ab)₂ fragment specific (1:5000 dilution in PBST buffer, Jackson Immunoresearch, Cat #109-035-097, 100 μl/well) for 40 minutes at 37° C. After a final wash, plates were incubated with 100 μl/well TMB (Innoreagents, Cat #TMB-S-002). The reaction was stopped 4 minutes later at room temperature with 50 μl 1M H₂SO₄, and the absorbance of each well was read on a microplate reader using dual wavelength mode with 450 nm for TMB and 630 nm as the reference wavelength, then the OD (450-630) values were plotted against antibody concentration. Data was analyzed using Graphpad Prism software and EC₅₀ values were reported.

Row | EC50 [nM] | Binder
1 | 0.313 | B1
2 | 0.136 | B2
3 | 0.15 | B3
4 | 0.146 | B4

biological target: T3, human Siglec15-Fc protein (human); assay: competitive ELISA: coated human Siglec15-Fc, blocked ligand biotin-labeled human LRRC4C-Fc
T3 construct: In house made; also called recombinant human Siglec15 protein with human IgG1 Fc at the C-terminus
Procedure: Serially diluted anti-Siglec15 antibodies or the controls (starting at 66.67 nM with a 5-fold serial dilution) in PBST with 2.5% w/v non-fatty milk were added to the Siglec15-Fc bound plates, 100 μl per well, and incubated with the human Siglec15-Fc protein at 37° C. for 40 minutes. Plates were washed 4 times again using wash buffer, then added and incubated for 40 minutes at 37° C. with 100 μl/well 290 ng/ml biotin-labeled human LRRC4C-Fc protein (prepared in-house with SEQ ID NO: 23). Plates were washed again using wash buffer. Thereafter, the plates were added with 100 μl/well streptavidin conjugated HRP (1:5000 dilution in PBST buffer, Jackson Immunoresearch, Cat #016-030-084) and incubated for 40 minutes at 37° C. Plates were washed again using wash buffer. Finally, TMB was added and the reaction was stopped using 1M H₂SO₄, and the absorbance of each well was read on a microplate reader using dual wavelength mode with 450 nm for TMB and 630 nm as the reference wavelength, then the OD (450-630) values were plotted against antibody concentration. Data was analyzed using Graphpad Prism software and IC₅₀ values were reported.

Row | IC50 [nM] | Binder
5 | 1.24 | B5
6 | 0.751 | B1
7 | 0.84 | B2

biological target: T2, recombinant human Siglec15-his protein; assay: SPR Biacore T200, antibody captured by anti-human IgG, antigen as analyte, 1:1 fit
Procedure: (§1) Briefly, goat anti-human IgG (GE healthcare, Cat #BR100839, Human Antibody Capture Kit) was covalently linked to a CM5 chip (carboxy methyl dextran coated chip, GE healthcare, Cat #BR-1005-30) via primary amines, using a standard amine coupling kit provided by Biacore (GE healthcare, Pittsburgh, Pa., USA). Un-reacted moieties on the biosensor surface were blocked with ethanolamine. Then, purified anti-Siglec15 antibodies of the disclosure at the concentration of 13.3 nM and an anti-Siglec15 benchmark (ch5G12, also referred to as BM, see U.S. Patent Publication No. 20190202912A1, amino acid sequences of the heavy chain and light chain set forth in SEQ ID NOs: 24 and 25, respectively) at 13.3 nM, were respectively flowed onto the chip at a flow rate of 10 μL/min. Then, serially diluted recombinant human Siglec15-his protein (in house made, amino acid sequence set forth in SEQ ID NO: 20) or cynomolgus monkey Siglec15-his protein (in house made, amino acid sequence set forth in SEQ ID NO: 21), 2-fold serial dilution in HBS-EP⁺ buffer starting at 80 nM, were respectively flown onto the chip at a flow rate of 30 μL/min. The antigen-antibody association kinetics was followed for 2 minutes and the dissociation kinetics was followed for 10 minutes. The association and dissociation curves were fit to a 1:1 Langmuir binding model using BIAcore evaluation software.

Row | Kd [nM] | koff [s⁻¹] | kon [M⁻¹ s⁻¹] | Binder
8 | 0.0139 | 0.0001 | 7.18e+06 | B5
9 | 0.265 | 0.00172 | 6.51e+06 | B1
10 | 0.041 | 9.98e-05 | 2.43e+06 | B2

Biological target: T1, cynomolgus monkey Siglec15-his protein
Assay: as above
Procedure: as §1

Row | Kd [nM] | koff [s⁻¹] | kon [M⁻¹ s⁻¹] | Binder
11 | 0.0269 | 0.000104 | 3.89e+06 | B5
12 | 0.448 | 0.000788 | 1.76e+06 | B1
13 | 0.0681 | 8.49e-05 | 1.25e+06 | B2
